Measurements taken from article PMC3107238.

Molecular target: plasma proteins (rat (endogenous in serum))
Assay: SEC

Substance	percent plasma protein binding [%]
soluble vWA domain of tumor endothelium marker-8 (sTEM8) (from UniProt Q9H6X2 38-220) (domain or fragment)	> 90
L56A mutant of sTEM8 (from UniProt Q9H6X2 38-220) (domain or fragment)	> 90
